{
  "source": "patent US20160194399A1",
  "about": "(CYTOMX THERAPEUTICS, published 2016)",
  "binders": {"B1": {"name": "Anti-CD3ε antibody SP34 (antibody, V domains shown)", "VH": "EVQLVESGGGLVQPKGSLKLSCAASGFTFNTYAMNWVRQAPGKGLEWVARIRSKYNNYATYYADSVKDRFTISRDDSQSILYLQMNNLKTEDTAMYYCVRHGNFGNSYVSWFAYWGQGTLVTVSA", "VL": "QAVVTQESALTTSPGETVTLTCRSSTGAVTTSNYANWVQEKPDHLFTGLIGGTNKRAPGVPARFSGSLIGDKAALTITGAQTEDEAIYFCALWYSNLWVFGGGTKLTVL", "notes": "Bought mouse monoclonal (BD Biosciences Cat# 556610); also called SP34 antibody"}},
  "key": {"[1]": {"molecular_target": "T1, SP34-binding peptide 15865", "T1 peptide": "MMYCGGNEVLCGPRV", "test": "flow cytometry on peptide-displaying E. coli, 1 nM SP34-dylight-488 with 100 nM isotype control, normalised to peptide expression (yPet-Mona)"}, "[2]": {"molecular_target": "T2, SP34-binding peptide 14995", "T2 peptide": "YSLWGCEWGCDRGLY", "test": "flow cytometry on peptide-displaying E. coli, 1 nM SP34-dylight-488 with 100 nM isotype control, normalised to peptide expression (yPet-Mona)"}, "[3]": {"molecular_target": "T3, SP34-binding peptide 15003", "T3 peptide": "GYRWGCEWNCGGITT", "test": "flow cytometry on peptide-displaying E. coli, 1 nM SP34-dylight-488 with 100 nM isotype control, normalised to peptide expression (yPet-Mona)"}, "[4]": {"molecular_target": "T4, SP34-binding peptide 15263", "T4 peptide": "WYSGGCEAFCGILSS", "test": "flow cytometry on peptide-displaying E. coli, 1 nM SP34-dylight-488 with 100 nM isotype control, normalised to peptide expression (yPet-Mona)"}, "[5]": {"molecular_target": "T5, SP34-binding peptide 15286", "T5 peptide": "GYSGGCEFRCYQLYS", "test": "flow cytometry on peptide-displaying E. coli, 1 nM SP34-dylight-488 with 100 nM isotype control, normalised to peptide expression (yPet-Mona)"}, "[6]": {"molecular_target": "T6, SP34-binding peptide 15860", "T6 peptide": "VYYCGGNESLCGERR", "test": "flow cytometry on peptide-displaying E. coli, 1 nM SP34-dylight-488 with 100 nM isotype control, normalised to peptide expression (yPet-Mona)"}, "[7]": {"molecular_target": "T7, SP34-binding peptide 15864", "T7 peptide": "FMCQQRMWGNEFCHQ", "test": "flow cytometry on peptide-displaying E. coli, 1 nM SP34-dylight-488 with 100 nM isotype control, normalised to peptide expression (yPet-Mona)"}, "[8]": {"molecular_target": "T1, SP34-binding peptide 15865", "test": "flow cytometry on peptide-displaying E. coli, 10 nM SP34-dylight-488 with 100 nM isotype control, normalised to peptide expression (yPet-Mona)"}, "[9]": {"molecular_target": "T2, SP34-binding peptide 14995", "test": "flow cytometry on peptide-displaying E. coli, 10 nM SP34-dylight-488 with 100 nM isotype control, normalised to peptide expression (yPet-Mona)"}, "[10]": {"molecular_target": "T3, SP34-binding peptide 15003", "test": "flow cytometry on peptide-displaying E. coli, 10 nM SP34-dylight-488 with 100 nM isotype control, normalised to peptide expression (yPet-Mona)"}, "[11]": {"molecular_target": "T4, SP34-binding peptide 15263", "test": "flow cytometry on peptide-displaying E. coli, 10 nM SP34-dylight-488 with 100 nM isotype control, normalised to peptide expression (yPet-Mona)"}, "[12]": {"molecular_target": "T5, SP34-binding peptide 15286", "test": "flow cytometry on peptide-displaying E. coli, 10 nM SP34-dylight-488 with 100 nM isotype control, normalised to peptide expression (yPet-Mona)"}, "[13]": {"molecular_target": "T6, SP34-binding peptide 15860", "test": "flow cytometry on peptide-displaying E. coli, 10 nM SP34-dylight-488 with 100 nM isotype control, normalised to peptide expression (yPet-Mona)"}, "[14]": {"molecular_target": "T7, SP34-binding peptide 15864", "test": "flow cytometry on peptide-displaying E. coli, 10 nM SP34-dylight-488 with 100 nM isotype control, normalised to peptide expression (yPet-Mona)"}, "[15]": {"molecular_target": "T1, SP34-binding peptide 15865", "test": "flow cytometry on peptide-displaying E. coli, 0.1 nM SP34-dylight-488 with 100 nM isotype control, normalised to peptide expression (yPet-Mona)"}, "[16]": {"molecular_target": "T2, SP34-binding peptide 14995", "test": "flow cytometry on peptide-displaying E. coli, 0.1 nM SP34-dylight-488 with 100 nM isotype control, normalised to peptide expression (yPet-Mona)"}, "[17]": {"molecular_target": "T3, SP34-binding peptide 15003", "test": "flow cytometry on peptide-displaying E. coli, 0.1 nM SP34-dylight-488 with 100 nM isotype control, normalised to peptide expression (yPet-Mona)"}, "[18]": {"molecular_target": "T4, SP34-binding peptide 15263", "test": "flow cytometry on peptide-displaying E. coli, 0.1 nM SP34-dylight-488 with 100 nM isotype control, normalised to peptide expression (yPet-Mona)"}, "[19]": {"molecular_target": "T5, SP34-binding peptide 15286", "test": "flow cytometry on peptide-displaying E. coli, 0.1 nM SP34-dylight-488 with 100 nM isotype control, normalised to peptide expression (yPet-Mona)"}, "[20]": {"molecular_target": "T6, SP34-binding peptide 15860", "test": "flow cytometry on peptide-displaying E. coli, 0.1 nM SP34-dylight-488 with 100 nM isotype control, normalised to peptide expression (yPet-Mona)"}, "[21]": {"molecular_target": "T7, SP34-binding peptide 15864", "test": "flow cytometry on peptide-displaying E. coli, 0.1 nM SP34-dylight-488 with 100 nM isotype control, normalised to peptide expression (yPet-Mona)"}, "[22]": {"molecular_target": "T1, SP34-binding peptide 15865", "test": "flow cytometry on peptide-displaying E. coli, 100 nM SP34-dylight-488 with 100 nM isotype control, normalised to peptide expression (yPet-Mona)"}, "[23]": {"molecular_target": "T2, SP34-binding peptide 14995", "test": "flow cytometry on peptide-displaying E. coli, 100 nM SP34-dylight-488 with 100 nM isotype control, normalised to peptide expression (yPet-Mona)"}, "[24]": {"molecular_target": "T3, SP34-binding peptide 15003", "test": "flow cytometry on peptide-displaying E. coli, 100 nM SP34-dylight-488 with 100 nM isotype control, normalised to peptide expression (yPet-Mona)"}, "[25]": {"molecular_target": "T4, SP34-binding peptide 15263", "test": "flow cytometry on peptide-displaying E. coli, 100 nM SP34-dylight-488 with 100 nM isotype control, normalised to peptide expression (yPet-Mona)"}, "[26]": {"molecular_target": "T5, SP34-binding peptide 15286", "test": "flow cytometry on peptide-displaying E. coli, 100 nM SP34-dylight-488 with 100 nM isotype control, normalised to peptide expression (yPet-Mona)"}, "[27]": {"molecular_target": "T6, SP34-binding peptide 15860", "test": "flow cytometry on peptide-displaying E. coli, 100 nM SP34-dylight-488 with 100 nM isotype control, normalised to peptide expression (yPet-Mona)"}, "[28]": {"molecular_target": "T7, SP34-binding peptide 15864", "test": "flow cytometry on peptide-displaying E. coli, 100 nM SP34-dylight-488 with 100 nM isotype control, normalised to peptide expression (yPet-Mona)"}, "[29]": {"molecular_target": "T1, SP34-binding peptide 15865", "test": "flow cytometry on peptide-displaying E. coli, 1 nM SP34-dylight-488 with 100 nM free human CD3ε as competitor, normalised to peptide expression (yPet-Mona)"}, "[30]": {"molecular_target": "T2, SP34-binding peptide 14995", "test": "flow cytometry on peptide-displaying E. coli, 1 nM SP34-dylight-488 with 100 nM free human CD3ε as competitor, normalised to peptide expression (yPet-Mona)"}, "[31]": {"molecular_target": "T3, SP34-binding peptide 15003", "test": "flow cytometry on peptide-displaying E. coli, 1 nM SP34-dylight-488 with 100 nM free human CD3ε as competitor, normalised to peptide expression (yPet-Mona)"}, "[32]": {"molecular_target": "T4, SP34-binding peptide 15263", "test": "flow cytometry on peptide-displaying E. coli, 1 nM SP34-dylight-488 with 100 nM free human CD3ε as competitor, normalised to peptide expression (yPet-Mona)"}, "[33]": {"molecular_target": "T5, SP34-binding peptide 15286", "test": "flow cytometry on peptide-displaying E. coli, 1 nM SP34-dylight-488 with 100 nM free human CD3ε as competitor, normalised to peptide expression (yPet-Mona)"}, "[34]": {"molecular_target": "T6, SP34-binding peptide 15860", "test": "flow cytometry on peptide-displaying E. coli, 1 nM SP34-dylight-488 with 100 nM free human CD3ε as competitor, normalised to peptide expression (yPet-Mona)"}, "[35]": {"molecular_target": "T7, SP34-binding peptide 15864", "test": "flow cytometry on peptide-displaying E. coli, 1 nM SP34-dylight-488 with 100 nM free human CD3ε as competitor, normalised to peptide expression (yPet-Mona)"}},
  "data": [
    {"binder": "B1", "values": [
      {"measurement": "expression normalized binding", "setting": "[1]", "result": 0.79},
      {"measurement": "expression normalized binding", "setting": "[2]", "result": 0.13},
      {"measurement": "expression normalized binding", "setting": "[3]", "result": 0.2},
      {"measurement": "expression normalized binding", "setting": "[4]", "result": 0.35},
      {"measurement": "expression normalized binding", "setting": "[5]", "result": 0.42},
      {"measurement": "expression normalized binding", "setting": "[6]", "result": 0.52},
      {"measurement": "expression normalized binding", "setting": "[7]", "result": 0.36},
      {"measurement": "expression normalized binding", "setting": "[8]", "result": 1.08},
      {"measurement": "expression normalized binding", "setting": "[9]", "result": 0.11},
      {"measurement": "expression normalized binding", "setting": "[10]", "result": 0.39},
      {"measurement": "expression normalized binding", "setting": "[11]", "result": 0.69},
      {"measurement": "expression normalized binding", "setting": "[12]", "result": 0.66},
      {"measurement": "expression normalized binding", "setting": "[13]", "result": 1.72},
      {"measurement": "expression normalized binding", "setting": "[14]", "result": 0.63},
      {"measurement": "expression normalized binding", "setting": "[15]", "result": 0.21},
      {"measurement": "expression normalized binding", "setting": "[16]", "result": 0.08},
      {"measurement": "expression normalized binding", "setting": "[17]", "result": 0.11},
      {"measurement": "expression normalized binding", "setting": "[18]", "result": 0.24},
      {"measurement": "expression normalized binding", "setting": "[19]", "result": 0.28},
      {"measurement": "expression normalized binding", "setting": "[20]", "result": 0.48},
      {"measurement": "expression normalized binding", "setting": "[21]", "result": 0.15},
      {"measurement": "expression normalized binding", "setting": "[22]", "result": 2.24},
      {"measurement": "expression normalized binding", "setting": "[23]", "result": 0.51},
      {"measurement": "expression normalized binding", "setting": "[24]", "result": 0.69},
      {"measurement": "expression normalized binding", "setting": "[25]", "result": 2.28},
      {"measurement": "expression normalized binding", "setting": "[26]", "result": 1.72},
      {"measurement": "expression normalized binding", "setting": "[27]", "result": 4.55},
      {"measurement": "expression normalized binding", "setting": "[28]", "result": 1.88},
      {"measurement": "expression normalized binding", "setting": "[29]", "result": 0.26},
      {"measurement": "expression normalized binding", "setting": "[30]", "result": 0.08},
      {"measurement": "expression normalized binding", "setting": "[31]", "result": 0.12},
      {"measurement": "expression normalized binding", "setting": "[32]", "result": 0.34},
      {"measurement": "expression normalized binding", "setting": "[33]", "result": 0.34},
      {"measurement": "expression normalized binding", "setting": "[34]", "result": 0.51},
      {"measurement": "expression normalized binding", "setting": "[35]", "result": 0.3}
    ]}
  ]
}
